Experiment: Stability of diluted alkaline phosphatase in the enzyme diluent
Format: physicochemical
Conditions: ≅100 molecules of alkaline phosphatase per ml of diluent, stored at 4° C.
Text: As is known to those skilled in the art, the stability of the enzyme is the most important factor in the detection of biological molecules. The present invention utilizes a unique diluent or buffer based upon the composition of human blood serum. The present diluent is a tris-buffer containing proteins, metal halides such as sodium chloride, potassium chloride, magnesium chloride, zinc chloride, and the like, alcohols or polyhydric alcohols and sodium azide. The pH of the buffer is between 7.5 to 8.5.

## alkaline phosphatase
  stability of enzyme in diluent: stable at least for one week

Source: patent US6767716B2, “Chemluminescent systems containing unsaturated 1,2-dioxetanes” (priority 2000, dated 2004)
